The text below walks through data of article PMC8285524, “Selective targeting of ligand-dependent and -independent signaling by GPCR conformation-specific anti-US28 intrabodies” (Nature Communications, 2021).

Assay [1] deals with NLuc-US28-Nb7 (human cytomegalovirus (HCMV)) (UniProt P69332). Nature of the assay: FRET or BRET; BRET-based saturation binding of Alexa647-labeled chemokine (0.1 pM-10 nM) to 100 ng membranes with NLuc-US28 constructs; HBSS with 0.05% BSA, 1 h at RT, 10 µM furimazine. For orientation: Bioluminescence resonance energy transfer reports proximity on the nanometre scale.
Assay [2] concerns the target NLuc-US28-Irr Nb (human cytomegalovirus (HCMV)) (UniProt P69332). The assay is described as above.
Assay [3] has as its target NLuc-US28-VUN103 (human cytomegalovirus (HCMV)) (UniProt P69332). The assay is described as above.
Assay [4] concerns the target NLuc-US28 WT (human cytomegalovirus (HCMV)), P69332. The description is as above.
Assay [5] concerns the target T1, US28 wildtype (human cytomegalovirus (HCMV), UniProt P69332 1-354, Strain: VHL/E is stated for some constructs, but its sequence is neither printed nor among the candidates. The AD169 entry is used as the closest wild type, so a few strain-specific residues may diffe).
T1 chain: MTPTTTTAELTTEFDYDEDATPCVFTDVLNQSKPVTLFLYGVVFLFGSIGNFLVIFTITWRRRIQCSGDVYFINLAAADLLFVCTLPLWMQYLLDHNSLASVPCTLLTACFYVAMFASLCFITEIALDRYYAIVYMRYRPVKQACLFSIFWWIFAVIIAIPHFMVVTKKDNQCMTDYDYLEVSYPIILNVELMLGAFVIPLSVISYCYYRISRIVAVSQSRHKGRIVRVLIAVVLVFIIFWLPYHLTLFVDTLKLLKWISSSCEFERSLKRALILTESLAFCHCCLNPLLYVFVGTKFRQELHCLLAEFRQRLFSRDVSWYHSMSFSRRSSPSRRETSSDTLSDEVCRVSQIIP
Nature of the assay: radioligand binding; displacement of 100 pM 125I-CX3CL1 or 200 pM 125I-CCL5 from 3 µg US28-expressing membranes (no intrabody) by unlabeled ligand; HEPES binding buffer pH 7.4, 0.1 M NaCl, 0.5% BSA; 2 h at room temperature; GF/C filtration. The settings on record: one partner purified.

In assay [6] the target is T1, US28 wildtype. Nature of the assay: radioligand binding; as a1, displacement of 125I-CCL5, membranes of HEK293T cells co-expressing US28 WT and the intrabody Nb7-mVenus. The settings on record: one partner purified. On the technique in general: In a radioligand displacement assay an active substance lowers the binding of a labelled ligand.
For assay [7], the target named is T1, US28 wildtype. Nature of the assay: radioligand binding; as a1, displacement of 125I-CCL5, membranes of HEK293T cells co-expressing US28 WT and the intrabody VUN103-mVenus. The settings on record: one partner purified.

Take “CX3CL1-Alexa647 (from UniProt P78423 25-341) (ligand)”: the pKD (in general, the negative decadic logarithm of the KD, by convention in mol/L) in assay [1] was found to be 10.4; in assay [2], 9.6; in assay [3], 9.6.

B1: CX3CL1-Alexa647, P78423 25-341 (ligand)
chain: QHHGVTKCNITCSKMTSKIPVALLIHYQQNQASCGKRAIILETRQHRLFCADPKEQWVKDAMQHLDRQAAALTRNGGTFEKQIGEVKPRTTPAAGGMDESVVLEPEATGESSSLEPTPSSQEAQRALGTSPELPTGVTGSSGTRLPPTPKAQDGGPVGTELFRVPPVSTAATWQSSAPHQPGPSLWAEAKTSEAPSTQDPSTQASTASSPAPEENAPSEGQRVWGQGQSPRPENSLEREEMGPVPAHTDAFQDWGPGSMAHVSVVPVSSEGTPSREPVASGSWTPKAEEPIHATMDPQRLGVLITPVPDAQAATRRQ
modifications: here or on the partner: Alexa Fluor 647 label
B1 registered a pKD in assay [4] of 9.6.

B2: CX3CL1 (unlabeled) (ligand, UniProt P78423 25-341, looked up)
chain: B1 chain
notes: CX3CL1 (fractalkine), chemokine ligand of US28; also called fractalkine; source: bought: PeproTech (stated for the BRET assays)
Consider B2, for which the pKi – broadly, −log10 of the Ki, conventionally taken in molar units – with US28 wildtype [5] came out at 9.9; with US28 wildtype [6] it was 10.7; with US28 wildtype [7], 9.7.
